One molecule from patent US20220047712A1 (FORTIS THERAPEUTICS, published 2022) can be followed below.

The assay addresses T1, CD46 (human, UniProt P15529 35-392).
T1 construct: whole, on cells; also called CD46 complement regulatory protein; cluster of differentiation 46
T1 sequence (looked up): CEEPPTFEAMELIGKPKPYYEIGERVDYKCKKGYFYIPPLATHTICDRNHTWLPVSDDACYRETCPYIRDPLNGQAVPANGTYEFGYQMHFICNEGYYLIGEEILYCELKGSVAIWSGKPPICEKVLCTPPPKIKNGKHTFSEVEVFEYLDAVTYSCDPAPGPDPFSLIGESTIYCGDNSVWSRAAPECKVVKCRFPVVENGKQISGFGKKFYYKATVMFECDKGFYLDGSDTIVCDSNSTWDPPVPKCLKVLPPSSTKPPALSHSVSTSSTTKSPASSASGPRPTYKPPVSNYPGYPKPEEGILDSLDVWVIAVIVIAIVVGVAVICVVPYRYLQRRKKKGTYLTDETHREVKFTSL
In words: flow cytometry on cells, YS5FL at 10 µg/mL, AlexaFluor-488 anti-human IgG1 Fc secondary. The procedure:
Cell surface CD46 was detected by flow cytometry. Cells were harvested, centrifuged and resuspended in FACS buffer (PBS+2% FBS) at a concentration of 1×10⁶ cells/mL. 100 μL of cell suspension was dispensed into each well of a 96-well plate, 100 μL of YS5FL at 10 μg/mL was added to the wells and incubated for 1 hour at 4° C. The cells were washed three times with FACS buffer. After the third wash, the cells were resuspended in 100 μL 1:500 diluted AlexaFluor-488 mouse anti-Human IgG1 Fc secondary antibody and incubated for 1 hour at 4° C. in the dark. The cells were washed three times with 200 μL PBS by centrifuging at 2000 RPM for 5 minutes. After the last wash, the cells were resuspended in 300 μL cold PBS and analyzed on a FACSVerse™ (BD Biosciences) flow cytometer. YS5FL bound specifically to the surface of LnCap-C4-2B, LnCap-C4, DU145, PC3-luc, and Hs27 prostate cancer cells, but not to non-tumor BPH1 cells. FIG. 1. Likewise, YS5FL bound specifically to the surface of RPMI8226, MM.1S, MM.1R, and INA6 multiple myeloma cells. FIG. 2.
In general terms: Flow cytometry measures light scatter and fluorescence of single cells or particles in a stream.

B1: YS5FL (antibody, human IgG1, lambda, V domains shown)
VH: QVQLVQSGGGVVQPGRSLRLACAASGLTVNNYAMHWVRQAPGKGLEWVAVISYDGNNKYYADSVKGRFTISRDNSKNTLYLQMNSLRAEDTAVYYCAKGGGYFDLWGRGTLVTVSS
VL: QSVLTQPPSVSGAPGQRVTISCTGSSSNIGAGYDVHWYQQLPGTAPKLLIYGNNNRPSGVPDRFSGSKSGTSASLAITGLQAEDEADYYCSSYTSGTWLFGGGTKLTVLG
notes: FOR46 is this antibody conjugated to MMAE via mc-vc-PAB; also called anti-CD46 YS5FL antibody; YS5FL mAb
Consider B1, for which the binding result is “binds”.
